Assay results taken from patent US20250269051A1 (ALMAC DISCOVERY, published 2025).
Positions count from the first letter of the chain named.

B1: AA5.S (VNAR)
VNAR: TRVDQSPSSLSASVGDRVTITCVLTGTGYGLYSSTYWYRKNPGSSDEERIIIGGRYSESVNKGSKSFTLTISSLQPEDSATYYCRAREARHPWLRQWYDGAGTKVEIKQ
notes: P3A1 G1 loop variant from the selection on streptavidin beads; also called P3A1 G1 loop variant AA5.S
B2: NAC6.S (VNAR)
VNAR: B1 VNAR with G26D, G28R, G30A, S45T, I51S
notes: VNAR, P3A1 G1 loop variant; entry includes the HisMyc tag; also called P3A1 G1 NAC6.S; P3A1G1 NAC6.S
B3: AC5.S (VNAR)
VNAR: B1 VNAR with G26D, G28S, D46N, E47K, I50M, I51S, G53S
notes: P3A1 G1 loop variant from the immunotube selection; also called P3A1 G1 loop variant AC5.S
B4: AE3.S (VNAR)
VNAR: B1 VNAR with G28R, I51S, G53S, S64T
notes: VNAR, P3A1 G1 loop variant; entry includes the HisMyc tag; also called P3A1 G1 AE3.S; P3A1G1 AE3.S

How the values were obtained:
human ROR1-Fc (CHO) = target: T1, human ROR1-Fc (CHO) (human); test: ELISA on coated human ROR1-hFc, one concentration (5 µg/mL)
T1 construct: ROR1 extracellular domain fused to human Fc; also called huROR1-Fc; hROR1-Fc
T1 sequence (chain, as listed by the source limits assumed): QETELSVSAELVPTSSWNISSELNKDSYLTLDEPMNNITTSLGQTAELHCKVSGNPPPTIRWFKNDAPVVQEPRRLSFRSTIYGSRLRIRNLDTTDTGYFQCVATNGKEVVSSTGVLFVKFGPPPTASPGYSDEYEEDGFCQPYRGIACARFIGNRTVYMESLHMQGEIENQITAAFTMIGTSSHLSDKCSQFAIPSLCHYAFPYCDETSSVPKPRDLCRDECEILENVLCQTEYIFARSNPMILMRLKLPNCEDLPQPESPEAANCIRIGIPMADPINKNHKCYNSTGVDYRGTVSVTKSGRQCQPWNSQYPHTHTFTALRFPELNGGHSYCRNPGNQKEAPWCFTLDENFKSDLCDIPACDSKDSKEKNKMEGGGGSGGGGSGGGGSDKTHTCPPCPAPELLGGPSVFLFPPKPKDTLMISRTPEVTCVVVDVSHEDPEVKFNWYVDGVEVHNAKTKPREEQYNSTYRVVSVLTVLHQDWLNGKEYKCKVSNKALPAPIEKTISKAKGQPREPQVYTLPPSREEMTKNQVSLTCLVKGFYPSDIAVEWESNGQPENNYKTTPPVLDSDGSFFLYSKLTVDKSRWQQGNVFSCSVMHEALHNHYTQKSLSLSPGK
Procedure: (§1) In brief, ELISA method as follows. Wells coated with 100ng of ROR1-hFc antigen and incubated, covered, at room temperature for 2 hr. Plates washed 3×400ul per well with PBST (PBS+0.05% Tween 20 (v/v)), then blocked with 4% skimmed milk powder (w/v) in PBST for 1 hour at 37° C. Plates washed as before plus additional wash in PBS alone. HisMyc-tagged binding proteins were diluted in 4% milk PBST and incubated overnight at 4° C. Plates washed 3× with PBST, 3× PBS and binding detected using appropriate secondary detection antibody in 4% milk PBST, room temperature 1 hour. Secondary antibodies used include: [0658] Anti-c-Myc, HRP (Invitrogen #R951-25) [0659] Mouse anti-polyHis, HRP (Sigma #A7058)

human ROR2-Fc (CHO) = target: T2, human ROR2-Fc (CHO) (human); test: ELISA; hROR2-hFc coated
T2 construct: also called hROR2-hFc
T2 sequence (chain, as listed by the source limits assumed): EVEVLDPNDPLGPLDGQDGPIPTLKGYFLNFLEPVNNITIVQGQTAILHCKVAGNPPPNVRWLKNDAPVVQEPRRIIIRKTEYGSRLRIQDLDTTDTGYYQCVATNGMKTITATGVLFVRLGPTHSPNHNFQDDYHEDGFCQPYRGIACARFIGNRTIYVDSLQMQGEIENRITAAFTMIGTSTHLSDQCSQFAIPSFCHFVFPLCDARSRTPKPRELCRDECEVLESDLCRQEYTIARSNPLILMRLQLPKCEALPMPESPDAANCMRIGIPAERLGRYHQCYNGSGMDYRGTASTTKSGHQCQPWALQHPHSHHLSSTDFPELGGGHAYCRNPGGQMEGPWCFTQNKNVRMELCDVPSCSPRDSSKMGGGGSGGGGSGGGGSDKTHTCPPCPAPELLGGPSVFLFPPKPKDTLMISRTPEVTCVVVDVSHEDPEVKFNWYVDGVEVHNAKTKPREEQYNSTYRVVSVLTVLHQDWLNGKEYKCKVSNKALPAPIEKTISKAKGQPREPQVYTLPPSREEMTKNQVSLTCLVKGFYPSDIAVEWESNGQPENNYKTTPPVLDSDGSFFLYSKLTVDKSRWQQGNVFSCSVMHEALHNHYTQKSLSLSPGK
Procedure: as §1
The same ELISA procedure was employed as described above but with either mROR1-hFc or hROR2-hFc coated on the plates.

Binder | binding result (human ROR1-Fc (CHO)) | binding result (human ROR2-Fc (CHO))
B1 | binds | –
B2 | – | no binding
B3 | binds | –
B4 | – | no binding
